{"source": "patent US7211395", "about": "(dated 2007)", "binders": {"B1": {"name": "DX-321 (peptide)", "chain": "AEGTGDRNMCKFSWIRSPAFCARADPEXK", "modifications": "disulfide cyclic, N-acetyl, C-amide, X = 6-aminohexanoic acid, fluorescein on Lys"}}, "key": {"[1]": {"molecular_target": "T1, human serum albumin (HSA) (human, UniProt P02768)", "assay": "FP, pH 6.2, 0.14 M NaCl"}, "[2]": {"molecular_target": "bovine serum albumin (bovine, UniProt P02769)", "sequence (P02769 25-607)": "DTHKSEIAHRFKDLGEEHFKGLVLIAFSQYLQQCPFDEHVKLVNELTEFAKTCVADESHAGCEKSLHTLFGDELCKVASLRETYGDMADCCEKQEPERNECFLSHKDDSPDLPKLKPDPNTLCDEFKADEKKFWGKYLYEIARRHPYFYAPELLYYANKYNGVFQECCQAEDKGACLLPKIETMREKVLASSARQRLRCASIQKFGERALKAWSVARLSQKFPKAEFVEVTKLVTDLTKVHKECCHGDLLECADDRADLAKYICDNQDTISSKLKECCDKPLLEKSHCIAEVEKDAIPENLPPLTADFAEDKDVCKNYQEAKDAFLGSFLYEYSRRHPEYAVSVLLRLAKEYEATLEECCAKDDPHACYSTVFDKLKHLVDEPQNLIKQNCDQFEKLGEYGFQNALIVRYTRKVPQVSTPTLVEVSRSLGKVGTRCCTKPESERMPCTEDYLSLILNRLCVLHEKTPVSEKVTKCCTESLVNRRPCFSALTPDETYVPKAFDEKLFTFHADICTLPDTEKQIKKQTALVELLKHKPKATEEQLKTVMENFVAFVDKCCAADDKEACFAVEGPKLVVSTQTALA", "assay": "FP, pH 6.2, no NaCl"}, "[3]": {"molecular_target": "T2, rat serum albumin (rat, UniProt P02770)", "T2 chain": "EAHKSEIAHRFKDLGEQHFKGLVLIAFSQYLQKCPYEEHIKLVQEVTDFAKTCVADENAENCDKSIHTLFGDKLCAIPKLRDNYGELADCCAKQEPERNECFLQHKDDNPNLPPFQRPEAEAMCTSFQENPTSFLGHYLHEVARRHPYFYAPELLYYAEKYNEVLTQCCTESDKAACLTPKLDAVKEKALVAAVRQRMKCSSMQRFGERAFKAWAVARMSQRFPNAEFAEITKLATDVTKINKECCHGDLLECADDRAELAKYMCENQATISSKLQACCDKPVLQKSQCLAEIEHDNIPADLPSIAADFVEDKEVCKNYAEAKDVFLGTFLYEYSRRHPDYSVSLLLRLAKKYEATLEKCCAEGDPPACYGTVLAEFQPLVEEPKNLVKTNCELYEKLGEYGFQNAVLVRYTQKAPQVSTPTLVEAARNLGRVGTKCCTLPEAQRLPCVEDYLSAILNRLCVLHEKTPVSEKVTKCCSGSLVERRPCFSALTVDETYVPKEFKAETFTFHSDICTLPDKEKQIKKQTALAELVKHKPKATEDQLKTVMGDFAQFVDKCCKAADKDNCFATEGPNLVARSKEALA", "assay": "FP, PBS pH 7.4"}, "[4]": {"molecular_target": "T3, rhesus serum albumin (rhesus macaque, UniProt Q28522)", "T3 chain": "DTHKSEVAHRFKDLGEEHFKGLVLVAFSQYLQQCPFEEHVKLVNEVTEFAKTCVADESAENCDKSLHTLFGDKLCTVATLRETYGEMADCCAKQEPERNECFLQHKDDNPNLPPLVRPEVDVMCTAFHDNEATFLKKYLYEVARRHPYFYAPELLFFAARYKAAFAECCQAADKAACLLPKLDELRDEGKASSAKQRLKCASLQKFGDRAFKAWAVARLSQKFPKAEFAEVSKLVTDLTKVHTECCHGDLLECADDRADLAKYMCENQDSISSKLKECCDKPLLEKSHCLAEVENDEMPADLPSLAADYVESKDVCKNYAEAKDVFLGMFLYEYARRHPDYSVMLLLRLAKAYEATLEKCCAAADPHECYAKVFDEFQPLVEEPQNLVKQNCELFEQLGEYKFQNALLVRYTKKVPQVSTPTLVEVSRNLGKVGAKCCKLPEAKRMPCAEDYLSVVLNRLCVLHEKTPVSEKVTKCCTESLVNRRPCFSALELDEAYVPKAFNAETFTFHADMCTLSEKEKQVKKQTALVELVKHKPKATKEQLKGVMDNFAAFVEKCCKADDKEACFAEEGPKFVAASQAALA", "assay": "FP, pH 6.2, no NaCl"}, "[5]": {"molecular_target": "mouse serum albumin (mouse, UniProt P07724)", "sequence (P07724 25-608)": "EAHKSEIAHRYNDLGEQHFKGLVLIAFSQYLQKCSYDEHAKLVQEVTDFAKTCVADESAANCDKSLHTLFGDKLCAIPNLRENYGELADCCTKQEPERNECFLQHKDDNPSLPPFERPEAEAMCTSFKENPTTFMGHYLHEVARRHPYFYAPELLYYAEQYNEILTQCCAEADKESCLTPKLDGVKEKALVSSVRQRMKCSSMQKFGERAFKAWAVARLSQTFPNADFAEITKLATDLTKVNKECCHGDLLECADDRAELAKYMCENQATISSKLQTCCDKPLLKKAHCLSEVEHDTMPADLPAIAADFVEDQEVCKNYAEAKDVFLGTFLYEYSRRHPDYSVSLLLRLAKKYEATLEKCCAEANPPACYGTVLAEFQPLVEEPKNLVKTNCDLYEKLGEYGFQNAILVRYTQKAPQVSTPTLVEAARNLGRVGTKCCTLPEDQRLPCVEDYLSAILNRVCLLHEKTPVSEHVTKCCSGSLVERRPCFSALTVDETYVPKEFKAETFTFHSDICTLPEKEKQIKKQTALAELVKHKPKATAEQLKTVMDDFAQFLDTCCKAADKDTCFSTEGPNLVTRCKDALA", "assay": "FP, pH 6.2, no NaCl"}, "[6]": {"molecular_target": "T1, human serum albumin (HSA)", "assay": "FP, pH 7.4, 0.14 M NaCl, 0.1% caprylate"}}}
{"binder": "B1", "values": [{"measurement": "Kd", "setting": "[1]", "value": 9, "unit": "µM"}, {"measurement": "Kd", "setting": "[2]", "value": 21, "unit": "µM"}, {"measurement": "Kd", "setting": "[3]", "value": 117, "unit": "µM"}, {"measurement": "Kd", "setting": "[4]", "value": 38, "unit": "µM"}, {"measurement": "Kd", "setting": "[5]", "value": "> 200", "unit": "µM"}, {"measurement": "Kd", "setting": "[6]", "value": 75, "unit": "µM"}]}
